According to PMC8939769, “The SARS-CoV-2 monoclonal antibody combination, AZD7442, is protective in non-human primates and has an extended half-life in humans” (Science Translational Medicine, 2022):

Experiments:
[1] = target: T1, SARS-CoV-2 S trimer (S2P ectodomain protein) (SARS-CoV-2, ancestral (Wuhan-Hu-1 …, UniProt P0DTC2, stabilised)); assay: not stated; binding kinetics (ka, kd, KD) on the SARS-CoV-2 S trimer (S2P ectodomain protein); representative of at least two independent assays; assay details in the Supplementary materials; conditions: both partners purified
T1 construct: also called SARS-CoV-2 spike protein; spike trimer protein

[2] = target: T1, SARS-CoV-2 S trimer (S2P ectodomain …); assay: cell-based or functional assay

B1: AZD8895 (tixagevimab) (antibody, V domains shown)
VH: QMQLVQSGPEVKKPGTSVKVSCKASGFTFMSSAVQWVRQARGQRLEWIGWIVIGSGNTNYAQKFQERVTITRDMSTSTAYMELSSLRSEDTAVYYCAAPYCSSISCNDGFDIWGQGTMVTVSS
VL: not shown
For B1, the Kd [1] was 2.8 pM and the “neutralization of the USA-WA1/2020 strain of SARS-CoV-2 in vitro, IC50” value [2] was 9 ng/mL.
